Experimental data as given in the supplement of paper PMC12455559.

assay: purified protein yield per well (BCA); higher = higher soluble expression
Method in brief: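 Candidate enzymes were expressed in E. coli C41(DE3) in 2 mL autoinduction cultures with 100 µg/mL kanamycin, at 37 °C for 2 h and then 18 °C for 40 h. Cells were lysed, and protein was bound to Ni-charged magnetic beads and released by SUMO protease cleavage on an OT-2 robot. The read-out is purified protein yield per well, measured with the Pierce Rapid Gold BCA kit. Values below 25 ug (0.1 mg/mL) are below the detection threshold.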

Purified protein yield per well, < 25 µg:
QAAANPYERGPAPSVSSIEAARGSYAVSQTSVSSLGVTGFGGGTVYYPTSTADGTFGAVVISPGFTATQSSISWLGPRLASQGFVVFTIDTNSTLDQPDSRGRQLLAALDYLTERSSVRTRIDATRLGVMGHSMGGGGTLEAAKSRPSLQAAIPLTGWNTDKSWPELRTPTLVIGADGDTVAPVATHSEPFYTSLPSSLDKAYLELNGATHFTPNSSNTTIAKYSISWLKRFIDDDTRYEQFLCPLPRPSVTIEEYRGNCPHS [TEP116]
QACDSLLLESITNPGPFIVNTIDESLGIRNGPGYNGGTIFYPDHIGNFSSIVLVPGFMNSEFTIQNWGAFFASHGIITMTIGTNALTDTHIQRRDALLDAIVSLKAENERLGSPLYGSIDTSSIAVGGFSKGGGGAMLVPAIDPNIKAIISLYPWLENPTSSDLNHSVPVIIISGELDLIAPPFIHADIHYNLLPNTTMKLKYEVALGSHDIISGPNAGNGEVGVRVISWLQNFLLDDSCYCPILTLIPNTSSSYTTNILCNNTSINISSFNTGSDKKLLKITDIFGRETKEILNKYLLFIYDDGTVEKNIVLE [TEP022]
QAIGPDPTAASLAADGPFAVSTQTASRATGFAGGTIYVPNTAGRYALVAFCPGFTNSQSAVAALGRRLATHGFVVVTMNTNSIFDFPASRATQLIAALNTVAAISTGPVVGKVDSARRMVAGYSMGGGGALIAARGNPSLRGAVALAPWSDSDKNFSTTTVPTAIVAGSADTTASPTDHATVFYNSMPTTTKKLLAIISGATHSFPTTSTPNQPASGYQIAWSKRFADQDVRYGPFLVTDSRLSSFASTGPF [ESM142]
QARDVTAGNPYQRGPDPTVAMIEARTGPFATASASVPAGYGFNGGMVYYPTDTSLGTWGALAIVPGYSALFANEEAWMGPWLASFGFVVIGVETTTRTDSADARGTELLSALNYLTTQSPVRDRVDPNRLSVLGHSAGGAGAMLAAQRQPTLKAAVGLAPGSPVGNLSLATDTVPTMVIGGQNDSVVTPSYLSGLYATMPASTQSAFAQIAGADHVYYTRPNNVETKLLIPWLKTFLDNDTRYVPFLCPAPPDPSSLSMYVPKCPYVPGGSGPGGGGNTGALHAVGAAKCLAAPSSGTPGTQLTIGTCDGQARQTWTRTATDQLTVTTAGATLCLDASGQGGSPGTKAIVWSCNGQANQHWNVNSNGTVTSAQSGLCLDVTGGSTAEGAPVELWTCNGGGNQQWHLG [TEP085]
QDCDSLKISSISNPGPYKVKKILEKDGLRDGPDYYGATLYYPEDATPPFASIVIVPGFWSYEPSIQAWGPFLASHGIVTLTIGTNILSDFPEQRALALLDAAETIKQEIIRESSPLYGSLDPTKIAVSGWSMGGGGAQMAAVLDTTLKAVMALAPWQNTQLTETAFNHPVPTLIFSGEKDPTAPASMHATVHYNYTPQTTSKLLFEIKNGNHSVANTPEGGNGDVGRIAIAWLKNLLVGQPCYCPLLLDPPVSASKYVTNLQCSSIASVSRPDGKDDFSP [TEP159]
QDNPYERGPDPTESLIEASRGPFSVSQTSVSSLVSGFGGGTIYYPTSTSEGTFGAVAISPGFTATESSIAWMGPRLASHGFVVITIDTNTIYDQPSSRGDQLLAALDYMTEDNLTVRGRIDSSRLAVAGHSMGGGGSLEAASSRPALQAAVPLAPWNTDKSWSELRTPTLIIGGESDSIAPVATHSIPFYNSIPASAEKAYLELDNASHFFPQTPNTTQAKYMLSWLKRFVDNDTRYEQFLCPAPDDRDISDYRDTCPHA [TEP150]
QDNSQGRYRPEGRQVGLAIGREFDERLYEVRTYEPEVGAEAFAGAMVFYPLTLSFDPPNGAVAFVPGFRAPASVYEWWGPALASLGYSVFILETNTPTDALAARADALIAAVDLIKAENQNPDAPVANKIDPEKIAIMGHSMGGGASLVAATQMGDSIKAVIPLALYCCEPGQSFSGDYGSLTLPTMIIASAEDEVAPPAEHAKLLYDSIGGSKTYVEFARGDHMFISNSGDQKATLGRFVLAFLKDILDGR [TEP019]
QENPFERGPDPTERSIEAPRGPFATATTTVARGGVQGFGGGTIYYPTDTSEGTFGAVAISPGFTESQSAISWYGQRLASQGFVVFTIDTNGIFDFPDQRGDQLLAALDYLTTHSTVADRIDADRLGVLGHSMGGGGSLSAVDERTELQAAIPLAPWHLNQNWSGVDVPTMIIGGETDFIAPVDTHAEPFYQSLPSSLDKAYLEMKGKGHFVTNSPNTVIAKFAISWLKRFIDNDTRYERFLCPAPSPDAEISEYRDTCPH [TEP078]
QIGPAPTSASLNATAGPLAVSTSTVTVATGFGGGTIYYPSTAGQYGVIAISPGFTATQSSVAWLGRRLATHGFVVITIDTNTTLDQPASRATQLIAALNYVVNSASSTVRSRVDPNRRAVAGHSMGGGGALIAAENNPSLKASLPLTPWNLSSSFTQVRVPTLIVGSDGDAVAPVAVHARPFYASLPGTTYKAYAELNLATHFTPNSTNTPIGRYGVTWMKRFVDADTRYSSFLCGADHQAYATALVFDRYSQNCPY [ESM116]
QIGPDPTSASLNATAGSFAVSTSNVTLARGFGGGTIYYPTTAGRYGVVAISPGFTATQSSIAWLGRRLATHGLVVITMNTNSTLDQPASRATQLMAALNYVVNSASSTVRARVDSTRLAVAGHSMGGGGALIAAEDNPTLKAALPLTPWNLSTSFTQVRVPTLIVGADGDTVASVAAHARPFYASLPASTFKAYAELNGATHFTPNSTNTPIGRYGVTWMKRFVDADTRYSPFLCGAAHTAYATALVFDRYNQNCPY [ESM068]
QIGPDPTSSSLNATSGPFAVSTSNVVLARGFGGGTIYYPTTTGRYGVVAISPGFTATESSVAWLGRRLATHGLVVITINTNSTLDQPASRATQLMAALNHVVNSASSTVRSRVDSTRLAVAGHSMGGGGALIAAENNPTLKAALPLTPWNLSSSFTQVQVPTLIVGADGDSVASVAVHARPFYASLPATTFKAYAELNGASHFTPNSTNTPIGRYGTAWMKRFVDADSRYSPFLCGAPHEAYATALVFDRYNQNCPY [DP027]
QIGPDPTSSSLNATSGPFAVSTSTVAIASGFGGGTIYYPTTTGQYGVIAVSPGFTATQSSIAWLGRRLATHGFVVITIDTLTTLDQPASRATQLVAALNYVVNSATSTVRSRVDSSKRAVAGHSMGGGGALIAAQNNPGLKASLPLTPWNLSTNFSQNQVPTLIFGSDGDTVAPVAVHSRPFYASLPSSTYKAYAELNLATHFTPNSTNTPIGRYGVAWMKRFIDSDTRYSAFLCGAEHQAYATALVFDRYNQNCPY [ESM113]
QNCDSLLLESITNPGPYSVNDIDESAGIRNGSDYSGSTIYYPVNSNGNYASIVLVPGYMNTESTIQNWGPFLASHGIVTMTIGTNSLTDNHIQRKDALLDAIISLKNENNRLASPLYAKLATTTIAVGGFSKGGGGAQLAAVDAPDLKAVVALYPWLDNPSQSDLNHNIPVIIVSGELDLIAPPSSHADVHYDYTPNTTNKLKYEVEFASHDALSGPTGGNGEVGKRVFSWLQTYLLDDSCYCPLMLVPATTSSEYITNIVCDNVTQVSEFSYANKKLIKVIDLLGREAKENKNTPLFYIYDDGTVEKKIIIE [TEP087]
QNCGNISLNNITNPGPYGYLTMDQNDGLRDGPDYGNATVYYPTNTTTPFACVSIVPGFFSTQSSVAAWGPFLASHGIVSIIFDTNSLFDSPADRADGLLDALETMRQENTRTASPLFGLIDESRFGVMGWSMGGGGAQLAAVIDPSLKAVIALCPWLNSPNSNTLNHTVPVLILSGELDPTAPPDLHADVHFDLTPNTTDKLLFEVDGGDHSIANDPANAQGDIGKYGLAWLRNYLLDDPCHCPLVLLPSTETSNTMTNVVCPPTLACPIQLTLFNNLIADGTYKAIQTVTSASMVPLSGNVSLKAEQSIFLDCGFSVDSGAAFEAVIQICN [TEP048]
QNPFERGPAPTTASLEASRGPFATSSFTVSRPSGYGAGTVYYPTNAGGTVGAIAIVPGYTARQSSINWWGPRLASHGFVVITIDTNSTLDQPSSRSRQQLAALDQVATLARTSSSPIYNKVDTTRMGVMGWSMGGGGSLISAENRPSLKAAAPQAPWNSSTNFSSVTVPTLIFACENDSIAATGSHASPMYNSMSRNPKQYLEINGGSHSCANSGNSNQALIGKKGVAWMKRYMDNDTRYTSFACANPNSTRVSDFRVARCS [ESM086]
QNPYERGPAPSTASLEASRGPFATSSFTVSRPSGYGAGTVYYPTNAGGTVGAIAIVPGYTARQSSINWWGPRLASHGFVVITIDTNSTSDQPASRSRQQLAALDQVATLNSTSSSPIYNKVDTSRMGVMGWSMGGGGSLISAQNRSSLKAAAPQAPWNSSTNFSSVTVPTLIFACESDAIARVGSHASPMYNSMTRNPKQFMEIEGGSHSCANSGNSNQALIGKKGVAWMKRFMDNDTRYTSFACSNPNSTRVSDFRVARCS [ESM114]
QNPYERGPAPTTSSLEASRGPFSTSSFTVSRPSGYGAGTVYYPTNAGGTVGAIAIVPGFTARQSSINWWGPRLASHGFVVITIDTNSTLDQPASRSRQQLAALDQVATLARTSSSPIYNKVDTTRMGVMGWSMGGGGSLISAQNRPSLKAAAPQAPWNGSTSFGSVTVPTLIFACENDSIAPVGSHASPMYNSMTRNPKEFIEIDGGSHSCANSGNSNQALIGKKGVAWMKRFMDNDTRYTSFACANPNSTRVSDFRVARCS [ESM066]
QPIDSLETLSIKEQSTITLPTTLATKIPLTEVPATKIPLTTTTSTSPTSNCIPDSVITAAELSATRDNGPFTVATKSVPRQLANGFGGGTIHYPTNAGDCGLLGGIAVIPGYVSYEASIKWWGPRLASWGFVVITIDTNSIYDDPDSRATQLSAALDHILSDSTVGAQIDSTRLGAIGWSMGGGGALQLATKRSDIRVIIPQTPYHDKDYGNMDTPALFITCQNDRIASNKKYSSPFYNNAAGAKMKIEIKNGSHFCPSYRFNEILLSKPGIAWMHRYINGDTRFDKFLCNNENYGNSPRISAYDYKDCG [TEP174]
QQIGPNPTSAQLNATSGPFAVSSSNVLIASGFGGGTIYYPTQSGSYGVIAVCPGFTGTSSSISWFARRLATHGFVTIAMDTNTLLDQPDSRATQLRAALNYLINNSSSTIRSRINPNLRGVAGHSMGGGGTLIASASDSTLKVGIPLTPWNLSSLPFYSIRVPQLVFGADGDTIAPYAVHARPFYNAIPSTTKKAYALLQSASHFTPNTTDERIGRYGVAFAKRWVYNDTRYSTFLTGAEHNAYNNILRFQTYLHNGPY [DP062]
QQTGPDPTSASLNATAGPFAVSTATVTSPVGFGGGTIYYPTIAGQYGVVALSPGFTATQSSVAWLGRRIATHGFVVVTINTNSTLDQPASRANQLIAALNYVANSASTTVRSRVDASRRAVGGHSMGGGGSLIAAQNNPSLKAILPLTPWNLSTNFSGVQVPTLIVGADGDAVAPVASHARPFYASLPSTVRKAYGELNMASHSTPTSGVNTPIGRYGVTWMKRFVDGDTRYSTFLCGAEHQAYATATVFDRYSQNCPY [ESM127]
